Each block holds one substance with its values, some of them ahead of it.
Legend:
[1] = biological target: human kappa light chains (kappa LCs) of control pooled human serum (human); experiment: affinity capture from 50 µl IgG-depleted serum, elution, LysC digestion, PRM mass spectrometry
[2] = biological target: human lambda light chains (lambda LCs) of control pooled human serum (human); experiment: affinity capture from 100 µl IgG-depleted serum, elution, LysC digestion, PRM mass spectrometry
[3] = biological target: human kappa light chains (kappa LCs) of control pooled human serum (human); experiment: affinity capture from IgG-depleted serum, elution, LysC digestion, PRM mass spectrometry

fold increase in kappa FLC dimer signal compared to un-enriched serum [1]: 186 fold
Substance: Capture Select affinity beads specific for kappa (KappaXP) LCs

fold increase in lambda FLC dimer signal compared to un-enriched serum [2]: 113 fold
Substance: Capture Select affinity beads specific for lambda (LambdaXP) LCs

fold increase in kappa FLC dimer signal compared to un-enriched serum [3]: 155 fold
Substance: protein L agarose
